Experimental findings from patent US20110300158A1 (GlaxoSmithKline, published 2011) are described below.

For experiment [1], the target named is T1, Human Serum Albumin (human, UniProt P02768 25-609).
T1 construct: immobilised on CM5 chips; also called HSA; human SA
Put plainly: SPR (BIAcore). Background: SPR reads the build-up and loss of mass on a sensor chip optically.
Description: (§1) Binding to HSA, CSA, MSA and RSA by BIAcore was confirmed using purified protein at 3 concentrations 1 μM, 500 nM and 50 nM.

The target of experiment [2] is T2, mouse serum albumin (mouse, UniProt P07724 25-608).
T2 construct: also called MSA; mouse SA
Put plainly: SPR (BIAcore).
Description: as §1

In experiment [3] the target is T3, Rat Serum Albumin (rat, UniProt P02770 25-608).
T3 construct: also called RSA; rat SA
Description: SPR (BIAcore).
Description: as §1

The target in experiment [4] is T4, Cynomolgus monkey Serum Albumin (Cynomolgus monkey, UniProt A2V9Z4 25-608).
T4 construct: also called CSA; cyno SA
Put plainly: SPR (BIAcore).
Description: as §1

Experiment [5] has as its target T1, Human Serum Albumin. Description: SPR (BIAcore), second independent experiment.
Experiment [6] concerns the target T2, mouse serum albumin. Description: SPR (BIAcore), second independent experiment.
Experiment [7] deals with T3, Rat Serum Albumin. Description: SPR (BIAcore), second independent experiment.
In experiment [8] the target is T4, Cynomolgus monkey Serum Albumin. Description: SPR (BIAcore), second independent experiment.
Experiment [9] addresses T3, Rat Serum Albumin. Put plainly: SPR (BIAcore), DOM1m-21-23 fusion against unfused dAb.
The target of experiment [10] is T3, Rat Serum Albumin. Put plainly: SPR (BIAcore), DOM1m-21-23 fusion; albumin taken as RSA from the sentence before; fused to DOM1m21-23.

T4 sequence (A2V9Z4 25-608 limits assumed): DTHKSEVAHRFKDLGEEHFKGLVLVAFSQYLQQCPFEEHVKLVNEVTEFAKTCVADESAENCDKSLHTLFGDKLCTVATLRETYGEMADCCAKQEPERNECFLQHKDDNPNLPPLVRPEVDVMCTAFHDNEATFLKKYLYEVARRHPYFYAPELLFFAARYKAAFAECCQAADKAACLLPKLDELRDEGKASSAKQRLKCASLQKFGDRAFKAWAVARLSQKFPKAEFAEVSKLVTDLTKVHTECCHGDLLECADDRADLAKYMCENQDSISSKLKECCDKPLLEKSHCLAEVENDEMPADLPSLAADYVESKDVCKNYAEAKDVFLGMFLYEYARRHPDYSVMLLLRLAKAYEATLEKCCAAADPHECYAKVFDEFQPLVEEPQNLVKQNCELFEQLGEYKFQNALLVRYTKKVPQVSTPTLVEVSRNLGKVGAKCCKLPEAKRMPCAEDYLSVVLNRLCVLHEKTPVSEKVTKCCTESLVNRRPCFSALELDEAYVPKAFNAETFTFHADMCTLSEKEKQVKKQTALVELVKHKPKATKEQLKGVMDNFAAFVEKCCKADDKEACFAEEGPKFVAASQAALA
T2 sequence (P07724 25-608 limits assumed): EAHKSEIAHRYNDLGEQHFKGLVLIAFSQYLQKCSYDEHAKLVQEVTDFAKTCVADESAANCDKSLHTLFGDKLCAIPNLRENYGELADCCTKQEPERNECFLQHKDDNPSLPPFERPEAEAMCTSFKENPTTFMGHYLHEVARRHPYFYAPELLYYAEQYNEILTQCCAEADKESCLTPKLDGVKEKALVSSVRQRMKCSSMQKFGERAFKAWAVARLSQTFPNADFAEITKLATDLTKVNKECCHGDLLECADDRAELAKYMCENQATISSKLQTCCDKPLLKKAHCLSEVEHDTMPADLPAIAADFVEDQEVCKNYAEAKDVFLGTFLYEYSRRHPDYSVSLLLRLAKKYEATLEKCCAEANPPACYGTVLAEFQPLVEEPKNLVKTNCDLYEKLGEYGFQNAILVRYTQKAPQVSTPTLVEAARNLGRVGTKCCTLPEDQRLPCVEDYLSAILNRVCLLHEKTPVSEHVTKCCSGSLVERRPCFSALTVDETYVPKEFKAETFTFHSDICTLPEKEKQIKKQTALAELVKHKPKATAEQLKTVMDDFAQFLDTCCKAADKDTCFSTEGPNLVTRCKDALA
T3 sequence (P02770 25-608 limits assumed): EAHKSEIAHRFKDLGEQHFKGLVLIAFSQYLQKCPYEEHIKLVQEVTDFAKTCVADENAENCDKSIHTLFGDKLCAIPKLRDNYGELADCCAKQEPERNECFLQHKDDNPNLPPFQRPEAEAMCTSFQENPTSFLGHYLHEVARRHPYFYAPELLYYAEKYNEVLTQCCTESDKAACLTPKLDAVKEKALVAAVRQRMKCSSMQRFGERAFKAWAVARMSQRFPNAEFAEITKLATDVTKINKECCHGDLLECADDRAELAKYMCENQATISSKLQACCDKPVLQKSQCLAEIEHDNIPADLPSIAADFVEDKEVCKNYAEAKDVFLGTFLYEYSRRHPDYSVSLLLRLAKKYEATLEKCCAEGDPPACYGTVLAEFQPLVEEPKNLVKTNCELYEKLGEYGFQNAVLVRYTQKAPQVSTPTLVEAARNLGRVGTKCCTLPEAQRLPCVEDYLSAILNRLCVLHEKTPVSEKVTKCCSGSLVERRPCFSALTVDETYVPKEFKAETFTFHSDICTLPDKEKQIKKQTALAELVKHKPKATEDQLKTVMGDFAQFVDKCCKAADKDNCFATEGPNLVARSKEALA

B1: DOM7h-14-28 (other)
VL: DIQMTQSPSSLSASVGDRVTITCRASQWIGSQLSWYQQKPGKAPKLLIMWRSSLQSGVPSRFSGSGSGTDFTLTISSLQPEDFATYYCAQGAALPKTFGQGTKVEIKR
notes: Vk dAb; tag not included
The Kd is the equilibrium constant for the complex coming apart. By koff is commonly meant the first-order rate constant of dissociation. Broadly, the kon is the rate constant with which the complex forms. Turning to B1, the Kd with Human Serum Albumin [1] amounted to 30 nM; with mouse serum albumin [2], 26 nM; with Rat Serum Albumin [3], 45 nM; in experiment [4], 66 nM; in the experiment with Human Serum Albumin [5], 8260 nM; with mouse serum albumin [6] it was 31 nM. Moreover, the Kd is 140 nM with Rat Serum Albumin [7] and 136 nM in [8]. The koff with Human Serum Albumin [1] was 0.033 s⁻¹; in the experiment with mouse serum albumin [2], 0.034 s⁻¹; with Rat Serum Albumin [3], 0.07 s⁻¹; in [4], 0.13 s⁻¹; with Human Serum Albumin [5], 0.056 s⁻¹; with mouse serum albumin [6], 0.0715 s⁻¹. The values for the koff (with Rat Serum Albumin [7]; in [8]) were 0.114 s⁻¹ and 0.134 s⁻¹, respectively. In addition, the kon with Human Serum Albumin [1] worked out at 1.24e+06 M⁻¹ s⁻¹; in the experiment with mouse serum albumin [2], 1.6e+06 M⁻¹ s⁻¹; in the experiment with Rat Serum Albumin [3], 2.1e+06 M⁻¹ s⁻¹; in experiment [4], 2.5e+06 M⁻¹ s⁻¹; with Human Serum Albumin [5], 6780 M⁻¹ s⁻¹; with mouse serum albumin [6], 2.28e+06 M⁻¹ s⁻¹. The kon in the experiment with Rat Serum Albumin [7] was determined as 830000 M⁻¹ s⁻¹; in [8] it was 980000 M⁻¹ s⁻¹.

B2: DOM7h-14-36 (other)
VL: DIQMTQSPSSLSASVGDRVTITCRASQWIGSQLSWYQQKPGKAPKLLIMWRSSLQSGVPSRFSGSGSGTDFTLTISSLQPEDFATYYCAQGFKKPRTFGQGTKVEIKR
notes: Vk dAb; tag not included
As to B2, the Kd in the experiment with mouse serum albumin [2] was determined as 35 nM; in the experiment with Rat Serum Albumin [3] it was 30 nM; with Human Serum Albumin [5], 1260 nM; in the experiment with mouse serum albumin [6] it was 33 nM; with Rat Serum Albumin [7], 6120 nM; in experiment [8], 7830 nM. The koff in the experiment with mouse serum albumin [2] came out at 0.023 s⁻¹; with Rat Serum Albumin [3] it was 0.029 s⁻¹; with Human Serum Albumin [5], 0.067 s⁻¹; with mouse serum albumin [6], 0.0706 s⁻¹; with Rat Serum Albumin [7], 0.0554 s⁻¹; in [8], 0.11 s⁻¹. Also, the kon with mouse serum albumin [2] was 870000 M⁻¹ s⁻¹; with Rat Serum Albumin [3], 1.55e+06 M⁻¹ s⁻¹; with Human Serum Albumin [5], 54000 M⁻¹ s⁻¹; with mouse serum albumin [6] it was 2.11e+06 M⁻¹ s⁻¹; with Rat Serum Albumin [7], 9000 M⁻¹ s⁻¹; in experiment [8] it was 14300 M⁻¹ s⁻¹.

B3: DOM7h-11 (other)
VL: DIQMTQSPSSLSASVGDRVTITCRASRPIGTTLSWYQQKPGKAPKLLIWFGSRLQSGVPSRFSGSGSGTDFTLTISSLQPEDFATYYCAQAGTHPTTFGQGTKVEIKR
notes: Parental Vk dAb; also called DOM7h-12
In the experiment with Human Serum Albumin [1], B3 showed a Kd of 2800 nM, a koff of 0.641 s⁻¹ and a kon of 700000 M⁻¹ s⁻¹.

B4: DOM7h-11-15 (other)
VL: DIQMTQSPSSLSASVGDRVTITCRASRPIGTMLSWYQQKPGKAPKLLILAFSRLQSGVPSRFSGSGSGTDFTLTISSLQPEDFATYYCAQAGTHPTTFGQGTKVEIKR
notes: Vk dAb; pDOM5 myc tag not included; also called DOM7-11-15; DOM7h-12-15
In the case of B4, the kon in experiment [4] is 5.8e+06 M⁻¹ s⁻¹.

B5: DOM7h-11-12/DOM1m-21-23 fusion DMS number 5516 (bispecific antibody)
chain: EVQLLESGGGLVQPGGSLRLSCAASGFTFNRYSMGWLRQAPGKGLEWVSRIDSYGRGTYYEDPVKGRFSISRDNSKNTLYLQMNSLRAEDTAVYYCAKISQFGSNAFDYWGQGTQVTVSSASTSGPSDIQMTQSPSSLSASVGDRVTITCRASRPIGTMLSWYQQKPGKAPKLLILFGSRLQSGVPSRFSGSGSGTDFTLTISSLQPEDFATYYCAQAGTHPTTFGQGTKVEIKRAAAEQKLISEEDLN
notes: also called DMS5516
For B5, the “fold decrease in affinity compared to the unfused AlbudAb” value with Rat Serum Albumin [9] came to 2 fold.

B6: DOM7h-11-15/DOM1m-21-23 fusion DMS number 5517 (bispecific antibody)
chain: EVQLLESGGGLVQPGGSLRLSCAASGFTFNRYSMGWLRQAPGKGLEWVSRIDSYGRGTYYEDPVKGRFSISRDNSKNTLYLQMNSLRAEDTAVYYCAKISQFGSNAFDYWGQGTQVTVSSASTSGPSDIQMTQSPSSLSASVGDRVTITCRASRPIGTMLSWYQQKPGKAPKLLILAFSRLQSGVPSRFSGSGSGTDFTLTISSLQPEDFATYYCAQAGTHPTTFGQGTKVEIKRAAAEQKLISEEDLN
notes: also called DMS5517
Take B6: the “fold decrease in affinity compared to the unfused AlbudAb” value in the experiment with Rat Serum Albumin [9] is 2 fold.

B7: DOM7h-11/DOM1m-21-23 fusion DMS number 5515 (bispecific antibody)
chain: EVQLLESGGGLVQPGGSLRLSCAASGFTFNRYSMGWLRQAPGKGLEWVSRIDSYGRGTYYEDPVKGRFSISRDNSKNTLYLQMNSLRAEDTAVYYCAKISQFGSNAFDYWGQGTQVTVSSASTSGPSDIQMTQSPSSLSASVGDRVTITCRASRPIGTTLSWYQQKPGKAPKLLIWFGSRLQSGVPSRFSGSGSGTDFTLTISSLQPEDFATYYCAQAGTHPTTFGQGTKVEIKRAAAEQKLISEEDLN
notes: also called DMS5515; 'the DOM7h-12 clone' when fused
B7: the Kd with Rat Serum Albumin [10] is 2800 nM.
